Assay: soluble on expression in E. coli; label from the status in PepcDB or PDB records

Row | Sequence | soluble on expression in E. coli
1 | MTILSVSPNKREDLSMKRKIALAMVLAMTASMAQPVLAADSKTTLDVIISQYGTQTQTWWTQFEKDFEAENPDIDLNVEIVSWNDLYTKVNTLVANNNAPDILNIDVLADYVADDLLMPATEYASEDLQAKFFPAFWEASTIDDTVYALPILASCRALFYNKDILDEAGATVPTTWAEVQETAQKIKDKFGDDVYPWGIDMTTDEGQAAFSYYTWNNGGGFVDENGDWALNSDKNVEALNFAIGLVNDGYTNSDPANETRYDLQDMFGAGKVAMMIGPNNIPTYLSDGGYDINYDVTTIPANEGCDSVAMGVCDRLEVFKDDSAEDQEARTAAISKFFDFFYDDERYADYMVFEGFLPTTQTAADLLAKDDDTFASWIDILQSCNFYPATKTEWADVKQGVIEVEQNALLGDDVQTLLDDLQADIAG | not soluble
2 | DAYIGVLIDDLVTKGTNEPYRLLTSRAEYRLLLRHDNADLRLTDMGYELGMISEERYARFNEKRQQIDAEIKRLSDIRIKPNEHTQAIIEQHGGSRLKDGILAIDLLRRPEMTYDIILEILEEEHQLNADVEEQVEIQTKYEGYINKSLQQVEKVKRMEEKKIPEDLDYSKIDSLATEAREKLSEVKPLNIAQASRISGVNPADISILLIYLEQG | not soluble
3 | MQVKSIKMRWESGGVNYCYLLSDSKNKKSWLIDPAEPPEVLPELTEDEKISVEAIVNTHHHYDHADGNADILKYLKEKNPTSKVEVIGGSKDCPKVTIIPENLKKLHLGDLEITCIRTPCHTRDSICYYVKDPTTDERCIFTGDTLFTAGCGRFFEGTGEEMDIALNNSILETVGRQNWSKTRVYPGHEYTSDNVKFVRKIYPQVGENKALDELEQFCSKHEVTAGRFTLKDEVEFNPFMRLEDPKVQKAAGDTNNSWDRAQIMDKLRAMKNRM | soluble
4 | VTLLEQNPRWRLVPRGQAVNLRCILKNSQYPWMSWYQQDLQKQLQWLFTLRSPGDKEVKSLPGADYLATRVTDTELRLQVANMSQGRTLYCTCSAAPDWGASAETLYFGSGTRLTVL | soluble
5 | MGSDKIHHHHHHMQAKLTKKEFIEWLKTSEGKQFNVDLWYGFQCFDYANAGWKVLFGLLLKGLGAKDIPFANNFDGLATVYQNTPDFLAQPGDMVVFGSNYGAGYGHVAWVIEATLDYIIVYEQNWLGGGWTDRIEQPGWGWEKVTRRQHAYDFPMWFIRPNFKSETAPRSIQSPTQASKKETAKPQPKAVELKIIKDVVKGYDLPKRGGNPKGIVIHNDAGSKGATAEAYRNGLVNAPLSRLEAGIAHSYVSGNTVWQALDESQVGWHTANQLGNKYYYGIEVCQSMGADNATFLKNEQATFQECARLLKKWGLPANRNTIRLHNEFTSTSCPHRSSVLHTGFDPVTRGLLPEDKQLQLKDYFIKQIRVYMDGKIPVATVSNESSASSNTVKPVASAWKRNKYGTYYMEESARFTNGNQPITVRKIGPFLSCPVAYQFQPGGYCDYTEVMLQDGHVWVGYTWEGQRYYLPIRTWNGSAPPNQILGDLWGEIS | not soluble
6 | FAEDPSPYVLLDRDLTMIWANAAYLRATGLARDEVVGRRMFDVFPAEAESIPDQMLRASLRRAVEQGRPDHLPLIPYPIRNQDGRMEERFWSATNTPIKDAEGHVEFILQNTNDIT | not soluble
7 | MQQQGWRTYLYDAEQPYTPVASVTGKGESRQVWYYHTDVTGTPQEVTAADGTLVWAGYIKGFGENAADISNSGAYFHQPLRLPGQYFDDETGLHYNLFRYYAPECGRFVSQDPIGLAGGLNLYQYAPNPIRWIDPLGLAILEHQSNFDAARRTGFENAGMTNPEDVTFSKVDPKTGTVVEFKGPNGAKVAYDAPHADMDVTAGHDKPHVGWQSAGKRGSGGANRGNITYDGPQHPHRSDSKGDDKCLEHHHHHH | not soluble
8 | MKEIWYVRHGETEWNAQRRFQGHLDIPLSPVGIGQAFRLAERLSRSRISFDRLYASDLRRARQTAEPLAQVLGLPIATTPLLREIHVGELAGLTRAEAEARFPSFLAEAAEDPWNARRPGGESMADLARRLQAFLEEVPPGRHLVVTHGGVIRAALKLALDLAGDTWRRFHIQNTSITRILYPENAVLTVADAAHLEVWADWLSDEDLKG | soluble
9 | IAPTAQKLSKIYGVRSSIIIGQAALDSHFGSTLLASKYHNLFSIEASPGQGAVRLKSHEYKNGRWQEVTNRYLVYESWKESLYDYMAILHGNKIWDKALYTTMMTSSGYKTVARALQAAGFNSDPNYADKLIAVIEENNLTDYDK | not soluble
10 | MAHHHHHHMTPAGAGEIFLRHNPYRSEVISWYRKFLKASFSVPWETDEDALYVLEEARRLFRKNARINDIETIERKLREAEMRYEIGVHYRIPYPRAFHKTQGSLQESGVAYAADLDSMYDHPVSPRIGWIMEGSVNGGTMGGSEHLTQYLEDGPGVENDNLSEGR | not soluble
11 | MTSVTSSATSSPEPPTKVAAAMQTTTGETSISNETSFNASRETSLTALGFLDYLDEEQRAALLGEGLDISTLTWANQVTALRVLESLFNEHAYELVSAVIQHVAQEPGDNPHHFLKFSPEPSTENSWELTLDGPTVGLKVTFDPDGQITFKDAHLGLSPAEVVSVTEALDTSYSESQIKKAAEQLVGSLNPTQQAALQGSGLRGAQLTEEQKTLFLKMTSNWIDLANGDSGSEQQEEIADTFSDTYIIWNEQKDGSAFFQMKGPELDFSYKESVPENAELSARGVPNIQTSFQSPLEHHHHHH | soluble
12 | MSLQPNTYFLHNILVTGATGFVGSFLCSRLLAEGMSVRGTFLVTENPDSLVKGTEQALIEPIGPATFWGHALAGAGTVIHLAARVHVMRERAADPLKEFRFVNTEGTAHLAREAAKAGVKRFVFMGTIGVNGDNSGDAPYIESSPPYPHNPYSVSKYEAEQLLRQISSETGMEVVIIRAPLVYGPGNPGNFLSLLKAVNGDYGFKTLNFGLKVLPLPLASINNKRSLIYVGNLVDALVTCATHPAAVGQTYLVSDGEDVSTPELIRRTAAALGVPARLFPFPVPLMKLAGKLIDKSAAVNRLTGSLTVDSSKIRRELGWQPPFTMEEGLQETAKWFEKQGEGHHHHHH | soluble
13 | MRVVALVPGGIGDQILFFPTLDDLKRYYPNAQLDVVVEPRSKAAYRVSKSVNDILTFDYKDRNSLADWGNLVGTIRDREYDVVITVGQSWLVGLFLWLTGIPTRIGYQGKGRSFLTKTVPFKPSQYAAAVYHDLLAPIGITTPTPELAVNVPKPDIDWANSEQKRLGVNETGYVLIYGGSSWVSQPQALETIYPAENWQEIIQDFRQKQPDLPVVVIQGPDDEQFVRSLRDYSLDIKVTSPDNVGKLTAMIAGANLMLTTDSAPLHLSVAVQTYTIALFGSTDPVKLLPNSDKLLGIKSSTGRVADILPKAVLEKVWGGLEHHHHHH | not soluble
14 | MTKIIKNGTIVTATDTYEAHLLIKDGKIAMIGQNLEEKGAEVIDAKGCYVFPGGIDPHTHLDMPLGGTVTKDDFESGTIAAAFGGTTTIIDFCLTNKGEPLKKAIETWHNKANGKAVIDYGFHLMISEITDDVLEELPKVLEEEGITSLKVFMAYKNVFQADDGTLYCTLLAAKELGALVMVHAENGDVIDYLTKKALADGNTDPIYHALTRPPELEGEATGRACQLTELAGSQLYVVHVTCAQAVEKIAEARNKGLDVWGETCPQYLVLDQSYLEKPNFEGAKYVWSPPLREKWHQEVLWNALKNGQLQTLGSDQCSFDFKGQKELGRGDFTKIPNGGPIIEDRVSILFSEGVKKGRITLNQFVDIVSTRIAKLFGLFPKKGTIVVGSDADLVIFDPNIERVISAETHHMAVDYNAFEGMKVTGEPVSVLCRGEFVVRDKQFVGKPGYGQYLKRAKYGT | soluble
15 | GAADKRIDGNGNPETREIKISDYDEITFVGSADFEYEQSDKAPYLSVTIDENLFDYLVTEVEGGTLKIYPKSIKKGFNNNSYDLRPTVYKIKSNSKELKELNTVGSGSFIISKPTKVNRMEINMAGSGNVELRGPVKGYKLECNMAGSGNIIAKDIQLDNLSCSLASSGEIEVIGTVDRASFNVAGSGEIKAFDCQARKAECNIASSGEISVYATQILDANIVGSGEIHYKGDPEISKSIMGSGSINKVK | soluble
16 | MESKEERALNNLIVENVNQENDEKDEKEQVANKGEPLALPLNVSEYCVPRGNRRRFRVRQPILQYRWDIMHRLGEPQARMREENMERIGEEVRQLMEKLREKQLSHSLRAVSTDPPHHDHHDEFCLMP | soluble
17 | MHILVTGFAPFDNQNINPSWEAVTQLEDIIGTHTIDKLKLPTSFKKVDNIINKTLASNHYDVVLAIGQAGGRNAITPERVAINIDDARIPDNDDFQPIDQAIHLDGAPAYFSNLPVKAMTQSIINQGLPGALSNSAGTFVCNHTLYHLGYLQDKHYPHLRFGFIHVPYIPEQVIGKPDTPSMPLEKIVAGLTAAIEAISNDEDLHLALGTTE | not soluble
18 | SNARGLGSELKDSIPVAELSASGPFESHDLLRKGFSCVKNELLPSHPLELSEKNFQLNQDKMNFSTLRNIQGLFAPLKLQMEFKAVQQVHRLPFLPSSNLSLDILRGNDETIGFEDILNDPSQSELMGEPHVMVEHKLGLL | soluble
19 | MAHHHHHHMYRAHSKDINRNKGFHPLTYRNLRRVEQLKEEAELNKQKAEERQKELQRDQEERRYDELVLANSADSLSGELARYRQTRSIFAAEYEADAKAAKDASVASLPSPQVSKPEVQLKTSAGASFPVNSFLSKFKKEESYGSTCVMVKAEARDNTAAAASSAVASAEAETPVRKRPRDDATSNSPSSTHNGSGYGEGATKRGGDGGESAPATGFVTSAEAAQLRKELNLAQKQRHDPLMRVKEYQNSCVAAAARQLDHEQATGAVAKREDDQDKLQSRIRELLALKKKKK | not soluble
20 | MAASRDIFAPDFRRRPYWWEGYEPPECGEDTLPASADVAIVGGGYTGVCCALALREAGIEAVVLEAGRPGEGASTRSGGQVSGGVNVQKKALAAVGESAGQRAERLAARLRDAAASMAYVESLIERYAIECGWRRTGRLTTMWVPAHYQSWQARLDQLNACTGSQARMIPREELAAEIGSSVYHGAALIEHAGHLQPAQLYGGMLRAARDAGARVLGRTPVERIERRAGGYDVHTARGTVRAGQVVIATIGYTGANLGGLKRRIVPVCTHMIATEALPPDLAASLLPTNRAVSESRRVVNHYRLSPDGRRLLFGGRARFVPTDEATTARLLYRAMLKRFPQLAGTRITHSWGGNVAMTLDSMPHIGGADGLHYALGCNGSGVAMMSYLGHCVGRKIATQSGEPINAFDMGEIPGHPFYFGNPWFLFAIGSWYQARDAYDHWRARLEHHHHHH | soluble
21 | MGSDKIHHHHHHMSTKHSKAAAEFLKNKKQAAWHDETLWLVRAKRDRLSKEVPEWEELRNMACATKLYSNSHLDELLVEFENNARANGAHVYWAKDADEYCNIVYNILNQHGVKHFIKSKSMLAEECELNPFLESKGIEVVESDLGERILQLMHLKPSHIVLPAIHIKREQVGELFEREMGTEKGNFDPTYLTHAARKNLRQKFIHAEAAMTGANFAVASTGEIVVCTNEGNADMGTSQPKLQIAAFGMEKIVPDRESLGVFTRLLARSATGQPITTYTSHYRKPREGGELHIIIVDNGRSKILADPKHIKTLNCIRCGACMNTCPVYRRSGGYSYTYFIPGPIGINLGMLKAPLHYYDNVSACSLCYSCSFVCPAKVDLAEQIYLWRQDLDKLGKADRMKKVMSGGMEFMMKRPSIFNMALKWAPLVNGVPRFLIYNGLNDWGKGREMPKFAKESFNEMWKKGKVK | not soluble
22 | MAHHHHHHMDSQTPHGDVVDEATMAVLPEHGLIFSEIKQMQLLLCKPKLLPVKSYSLEKLEKMEKKLAREAKEKRDANRAQRQAPLVWTSPDLTAGEGVKTIPAPSPLVTVAPAPPQNVASTPLRDGGATPPSAAPAVASSASSRGAASQETLSFTPVHTEGETCADASMSAPERSPRISPSTDVSSSSPSPSASTTD | soluble

Source: the DeepSol protein solubility set
